Assay results as given in patent US20220275067A1 (PROTHENA BIOSCIENCES, published 2022).
Substitutions are numbered along the chain they refer to.

B1: hu9F5VHv9/hu9F5VLv8 (antibody, V domains shown)
VH: EVQLVQSGAEVKKPGATVKISCKASGFNIKDDYMNWVQQRPGKGLEWIGWIDPENGDTEYASKFQGRATMTADTSTNTAYMELSSLRSEDTAVYYCTTSNGWGQGTLVTVSS
VL: DIVMTQSPFSLPVTPGESASISCRSSKSLLHSNGITYLYWYLQKPGQSPQLLIYQMSNLASGVPNRFSSSGSGTDFTLKISRVEAEDVGVYYCAQNLELPLTFGQGTKLEIK
B2: hu9F5VHv9/hu9F5VLv8_DIM12 (antibody, V domains shown)
VH: B1 VH
VL: B1 VL with V3Q, L30G, L42G, M56G, L59R, L97G
B3: hu9F5VHv9/hu9F5VLv8_DIM5 (antibody, V domains shown)
VH: B1 VH
VL: B1 VL with V3Q, L30G, L42Q, M56G, L59R, L97I
B4: hu9F5VHv9/hu9F5VLv8_DIM15 (antibody, V domains shown)
VH: B1 VH
VL: B1 VL with V3Q, L30G, L42G, M56G, L59T, L97G
B5: hu9F5VHv9/hu9F5VLv8_DIM3 (antibody, V domains shown)
VH: B1 VH
VL: B1 VL with V3Q, L30S, L42Q, M56G, L59T, L97I
B6: hu9F5VHv9/hu9F5VLv8_DIM19 (antibody, V domains shown)
VH: B1 VH
VL: B1 VL with V3Q, L30S, L42I, M56I, L59R, L97I
B7: hu9F5VHv9/hu9F5VLv8_DIM18 (antibody, V domains shown)
VH: B1 VH
VL: B1 VL with V3Q, L30D, L42G, M56G, L59R, L97I
B8: hu9F5VHv9/hu9F5VLv8_DIM25 (antibody, V domains shown)
VH: B1 VH
VL: B1 VL with V3Q, L30G, L42I, M56E, L59R, L97G
B9: hu9F5VHv9/hu9F5VLv8_DIM21 (antibody, V domains shown)
VH: B1 VH
VL: B1 VL with V3Q, L30S, L42Q, M56I, L59G
B10: hu9F5VHv9/hu9F5VLv8_DIM14 (antibody, V domains shown)
VH: B1 VH
VL: B1 VL with V3Q, L30G, L42G, M56G, L59T, L97I
B11: hu9F5VHv9/hu9F5VLv8_DIM26 (antibody, V domains shown)
VH: B1 VH
VL: B1 VL with V3Q, L30I, L42I, M56E, L59R
B12: hu9F5VHv9/hu9F5VLv8_DIM2 (antibody, V domains shown)
VH: B1 VH
VL: B1 VL with V3Q, L30S, L42Q, M56G, L59R, L97I
B13: hu9F5VHv9/hu9F5VLv8_DIM10 (antibody, V domains shown)
VH: B1 VH
VL: B1 VL with V3Q, L30S, L42Q, M56K, L59G, L97I
B14: hu9F5VHv9/hu9F5VLv8_DIM7 (antibody, V domains shown)
VH: B1 VH
VL: B1 VL with V3Q, L30D, L42Q, M56K, L59R, L97I
B15: hu9F5VHv9/hu9F5VLv8_DIM27 (antibody, V domains shown)
VH: B1 VH
VL: B1 VL with V3Q, L42Q, M56G, L59R, L97I
B16: hu9F5VHv9/hu9F5VLv8_DIM6 (antibody, V domains shown)
VH: B1 VH
VL: B1 VL with V3Q, L30D, L42Q, M56G, L59R, L97I
B17: hu9F5VHv9/hu9F5VLv8_DIM11 (antibody, V domains shown)
VH: B1 VH
VL: B1 VL with V3Q, L30G, L42G, M56G, L59R, L97I
B18: hu9F5VHv9/hu9F5VLv8_DIM20 (antibody, V domains shown)
VH: B1 VH
VL: B1 VL with V3Q, L30S, L42Q, M56I, L59G, L97I
B19: hu9F5VHv9/hu9F5VLv8_DIM1 (antibody, V domains shown)
VH: B1 VH
VL: B1 VL with V3Q, L30S, L42Q, M56G, L59G, L97I
B20: hu9F5VHv9/hu9F5VLv8_DIM24 (antibody, V domains shown)
VH: B1 VH
VL: B1 VL with V3Q, L30G, L42I, M56E, L59R, L97I
B21: hu9F5VHv9/hu9F5VLv8_DIM9 (antibody, V domains shown)
VH: B1 VH
VL: B1 VL with V3Q, L30G, L42Q, M56K, L59G, L97I
B22: hu9F5VHv9/hu9F5VLv8_DIM17 (antibody, V domains shown)
VH: B1 VH
VL: B1 VL with V3Q, L30S, L42G, M56G, L59T, L97I
B23: hu9F5VHv9/hu9F5VLv8_DIM8 (antibody, V domains shown)
VH: B1 VH
VL: B1 VL with V3Q, L30G, L42Q, M56K, L59R, L97I
B24: hu9F5VHv9/hu9F5VLv8_DIM22 (antibody, V domains shown)
VH: B1 VH
VL: B1 VL with V3Q, L30S, L42Q, M56E, L59R, L97I
B25: hu9F5VHv9/hu9F5VLv8_DIM13 (antibody, V domains shown)
VH: B1 VH
VL: B1 VL with V3Q, L30G, L42G, M56G, L59R
B26: hu9F5VHv9/hu9F5VLv8_DIM23 (antibody, V domains shown)
VH: B1 VH
VL: B1 VL with V3Q, L30G, L42Q, M56E, L59G, L97I
B27: hu9F5VHv9/hu9F5VLv8_DIM4 (antibody, V domains shown)
VH: B1 VH
VL: B1 VL with V3Q, L30S, L42Q, M56G, L59R, L97G
B28: hu9F5VHv9/hu9F5VLv8_DIM16 (antibody, V domains shown)
VH: B1 VH
VL: B1 VL with V3Q, L30G, L42G, M56G, L59T

biological target: T1, recombinant human 4R0N tau (human, UniProt P10636 2-758); experiment: SPR Biacore T200; antibody captured by anti-human Fc; tau as analyte; global 1:1 fit
T1 construct: also called recombinant 4R0N human tau; P10636-6
Procedure: Target binding analysis was performed using a Biacore T200 to compare the binding affinity of humanized 9F5 variants to recombinant human 4R0N tau. Anti-Human Fc antibody was immobilized on sensor chip CM3 via amine coupling, and humanized 9F5 variants were captured to equivalent levels. Various concentrations of recombinant 4R0N human tau (ranging from 0.02 nM to 12.5 nM) were passed over the captured ligand at 50 μL/min in running buffer (HBS+0.05% P-20, 1 mg/mL BSA) for 180 seconds association/420 seconds dissociation as a single cycle. Data was blank subtracted to both an irrelevant sensor not containing antibody and 0 nM analyte concentration. Analysis was performed using a global 1:1 fit with Biacore Evaluation software.

T1 sequence (P10636 other isoform, or with tags, fused parts or gaps limits assumed): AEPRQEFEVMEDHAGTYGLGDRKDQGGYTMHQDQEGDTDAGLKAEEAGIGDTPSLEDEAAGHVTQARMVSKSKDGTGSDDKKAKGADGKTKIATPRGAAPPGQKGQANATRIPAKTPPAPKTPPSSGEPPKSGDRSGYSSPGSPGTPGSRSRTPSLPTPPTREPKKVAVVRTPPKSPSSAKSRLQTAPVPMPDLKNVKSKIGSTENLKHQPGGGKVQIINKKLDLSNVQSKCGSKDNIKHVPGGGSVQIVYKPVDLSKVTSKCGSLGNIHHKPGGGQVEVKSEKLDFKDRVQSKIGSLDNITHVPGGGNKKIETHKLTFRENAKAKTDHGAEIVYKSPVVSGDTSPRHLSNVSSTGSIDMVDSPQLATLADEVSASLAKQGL

Binder | Kd [nM] | koff [s⁻¹] | kon [M⁻¹ s⁻¹]
B1 | 0.269 | 0.000429 | 1.72e+06
B2 | 0.221 | 0.000429 | 1.94e+06
B3 | 0.169 | 0.000295 | 1.75e+06
B4 | 0.873 | 0.000732 | 839000
B5 | 0.6 | 0.00068 | 1.13e+06
B6 | 0.597 | 0.00215 | 3.61e+06
B7 | 0.0447 | 9.39e-05 | 2.1e+06
B8 | 3.15 | 0.0409 | 1.3e+07
B9 | 858 | 1.12 | 1.31e+06
B10 | 0.142 | 0.000188 | 1.33e+06
B11 | 1.04 | 0.004 | 3.84e+06
B12 | 0.299 | 0.000586 | 1.96e+06
B13 | 3.92 | 0.0741 | 1.89e+07
B14 | 0.18 | 0.000424 | 2.36e+06
B15 | 0.16 | 0.000385 | 2.41e+06
B16 | 0.178 | 0.000272 | 1.53e+06
B17 | 0.0772 | 0.00011 | 1.42e+06
B18 | 12.3 | 0.0694 | 5.64e+06
B19 | 0.844 | 0.00559 | 6.62e+06
B20 | 0.454 | 0.000993 | 2.19e+06
B21 | 5.07 | 0.0116 | 2.29e+06
B22 | 0.128 | 0.000326 | 2.54e+06
B23 | 0.435 | 0.000576 | 1.32e+06
B24 | 0.39 | 0.000878 | 2.25e+06
B25 | 0.266 | 0.000439 | 1.65e+06
B26 | 1.24 | 0.0832 | 6.69e+07
B27 | 2.63 | 0.00143 | 542000
B28 | 0.355 | 0.000808 | 2.27e+06
